# Measured values as given in PMC2169338 (The Journal of Cell Biology, 1999).
# B1: Tom70 (receptor, UniProt P23231 1-624, looked up)
# chain: MAPTIPPPSVPIPAATPVTVPADSSIWDRVSNWVSEHKAVVYTIAGVSVVITTAGVVYYLRKGSEQKESGPKLSKKERRKRKQAEKGEAEKASTSKTEEAAPTQPKAAAVESADELPEIDEESVVRLSEDERKAYAAKLKELGNKAYGSKDFNKAIDLYSKAIICKPDPVYYSNRAACHNALAQWEQVVADTTAALKLDPHYVKALNRRANAYDQLSRYSDALLDFTASCIIDGFRNEQSAQAVERLLKKFAENKAKEILETKPPKLPSSTFVGNYLQSFRSKPRPEGLEDSVELSEETGLGQLQLGLKHLESKTGTGYEEGSAAFKKALDLGELGPHEALAYNLRGTFHCLMGKHEEALADLSKSIELDPAMTQSYIKRASMNLELGHPDKAEEDFNKAIEQNAEDPDIYYHRAQLHFIKGEFAEAAKDYQKSIDLDSDFIFSHIQLGVTQYKMGSIASSMATFRRCMKNFDQTPDVYNYYGELLLDQNKFQEAIEKFDTAIALEKETKPMCMNVLPLINKALALFQWKQDYAEAEQLCEKALIIDPECDIAVATMAQLLLQQGKVVEALKFFERAAELARTEGELVNALSYAEATRTQIQVQENYPELASKLQGMSGGPGMR
# B2: Tom40 (natural protein)
# chain: not shown
# Legend:
# [1] = target: the molecule itself; assay: SDS-PAGE
# [2] = target: the molecule itself; assay: 35S-sulfate labelling, SDS-PAGE and phosphorimaging of the purified complex
protein,measurement,setting,value
B1,stoichiometry N,[1],2
B2,stoichiometry N,[2],~8 copies of Tom40 in the core complex
